Results as given in article PMC4167904.

Target: T1, p52 (NF-kB2) (human, UniProt Q00653 1-408)
T1 sequence: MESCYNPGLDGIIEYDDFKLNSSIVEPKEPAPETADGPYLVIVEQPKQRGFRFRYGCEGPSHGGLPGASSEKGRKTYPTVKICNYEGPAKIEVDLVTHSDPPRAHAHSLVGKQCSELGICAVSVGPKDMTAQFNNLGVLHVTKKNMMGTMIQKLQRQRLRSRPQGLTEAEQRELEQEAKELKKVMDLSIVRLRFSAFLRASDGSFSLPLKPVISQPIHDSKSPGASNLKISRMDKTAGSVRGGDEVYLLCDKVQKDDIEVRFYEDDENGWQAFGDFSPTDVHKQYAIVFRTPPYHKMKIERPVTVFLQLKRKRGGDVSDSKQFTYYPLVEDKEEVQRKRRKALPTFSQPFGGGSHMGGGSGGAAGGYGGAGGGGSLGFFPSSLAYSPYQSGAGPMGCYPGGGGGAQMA
Experiment: EMSA

B1: P-selectin kB (A/T) (dsDNA)
DNA 1: TCGACGGAAGGGGGTAACCCCTTGGG
DNA 2: GATCCCCAAGGGGTTACCCCCTTCCG
Q: Does B1 bind?
A: Result: binds
